From patent US20030170823A1 (ZymoGenetics, published 2003)

Target: T1, CRF2-4/zcytor11 heterodimeric receptor on BaF3 cells (human, UniProt Q08334 20-325, limits assumed)
T1 sequence 1: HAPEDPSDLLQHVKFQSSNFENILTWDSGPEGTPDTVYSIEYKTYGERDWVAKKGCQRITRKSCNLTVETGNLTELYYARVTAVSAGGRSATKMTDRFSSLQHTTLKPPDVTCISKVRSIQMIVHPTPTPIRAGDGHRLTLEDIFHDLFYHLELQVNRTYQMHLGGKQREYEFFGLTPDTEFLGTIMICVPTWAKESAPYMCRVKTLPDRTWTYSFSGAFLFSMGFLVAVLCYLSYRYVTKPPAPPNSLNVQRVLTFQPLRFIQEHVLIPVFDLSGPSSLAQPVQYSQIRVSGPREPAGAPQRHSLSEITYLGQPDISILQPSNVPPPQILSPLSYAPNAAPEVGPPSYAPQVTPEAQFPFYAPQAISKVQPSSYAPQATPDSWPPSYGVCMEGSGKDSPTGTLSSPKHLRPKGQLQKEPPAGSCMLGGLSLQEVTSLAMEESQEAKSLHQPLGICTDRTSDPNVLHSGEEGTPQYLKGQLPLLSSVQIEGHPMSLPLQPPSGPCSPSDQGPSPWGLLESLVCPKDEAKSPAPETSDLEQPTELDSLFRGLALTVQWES
T1 sequence 2: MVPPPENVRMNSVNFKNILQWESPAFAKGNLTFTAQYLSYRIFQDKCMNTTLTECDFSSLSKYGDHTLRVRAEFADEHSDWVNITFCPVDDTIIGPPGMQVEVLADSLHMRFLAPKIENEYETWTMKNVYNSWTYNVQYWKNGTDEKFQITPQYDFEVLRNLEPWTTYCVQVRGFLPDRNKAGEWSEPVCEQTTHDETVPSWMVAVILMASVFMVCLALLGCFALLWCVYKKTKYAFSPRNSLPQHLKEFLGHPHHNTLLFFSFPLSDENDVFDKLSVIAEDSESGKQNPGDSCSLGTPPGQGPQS
Assay: cell-based or functional assay

B1: ZCYTO18-CEE polypeptide purified from BHK 570 cells (ligand)
chain: APISSHCRLDKSNFQQPYITNRTFMLAKEASLADNNTDVRLIGEKLFHGVSMSERCYLMKQVLNFTLEEVLFPQSDRFQPYMQEVVPFLARLSNRLSTCHIEGDDLHIQRNVQKLKDTVKKLGESGEIKAIGELDLLFMSLRNACIEYMPME
Question: With B1 as the binder, how does the “proliferation of BaF3/CRF2-4/zcytor11 cells (Alamar Blue), fold induction at 0.06 ng/ml ZCYTO18-CEE” value read?
Answer: Its value is about 2 fold induction.

Question: What about the “proliferation of BaF3/CRF2-4/zcytor11 cells (Alamar Blue), fold over background at 50 ng/ml ZCYTO18-CEE” value of the same binder?
Answer: Its value is about 15 fold over background.
